The nature of this data set: self-splicing fitness, log relative to wild type (ln ratio); higher = more splicing; Tetrahymena group I intron in knt gene, E. coli kanamycin selection, DiMSum; sequences stand for … in CUCUCU…GGAGGGAAAAGUUAUCAGGCAUGCACCUGGUAGCUAGUCUUUAAACCAAUAGAUUGCAUCGGUUUAAAAGGCAAGACCGUCAAAUUGCGGGAAAGGGGUCAACAGCCGUUCAGUACCAAGUCUCAGGGGAAACUUUGAGAUGGCCUUGCAAAGGGUAUGGUAAUAAGCUGACGGACAUGGUCCUAACCACGCAGCCAAGUCCUAAGUCAACAGAUCUUCUGUUGAUAUGGAUGCAGUUCACAGACUAAAUGUCGGUCGGGGAAGAUGUAUUCUUCUCAUAAGAUAUAGUCGGACCUCUCCUUAAUGGGAGCUAGCGGAUGAAGUGAUGCAACACUGGAGCCGCUGGGAACUAAUUUGUAUGCGAAAGUAUAUUGAUUAGUUUUGGAGUACUCGUGGUCG
The essentials: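 A randomised library covering all eight P1ex-region intron nucleotides was built with the intron in the knt kanamycin-resistance gene on pET-22b(+) and held in E. coli BL21(DE3). Cells were grown overnight at 37°C or 30°C on LB agar, with or without 25 μg/mL kanamycin, plus 100 μg/mL carbenicillin, 50 μM IPTG and 0.2% rhamnose, and pooled colonies were amplicon-sequenced on an Illumina HiSeq 2500. DiMSum fitness is the error-weighted combination of wild-type-normalised replicate fold changes, kanamycin versus none.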

± gives the uncertainty stated by the source.

For the sequence UCCCAGCAAUAUUACGACAG, the “self-splicing fitness (ln)” value (37 °C) was -3.55 ± 0.37.
Regarding UCCCAGCAAUAUUACGACCA, the “self-splicing fitness (ln)” value is -1.65 ± 0.13 (30 °C) and -1.06 ± 0.23 (37 °C).
The matching figures for UCCCAGCAAUAUUACGAGAC: -3.6 ± 0.28 and -0.749 ± 0.16.
For UCCCAGCAAUAUUACGAGAU, in that order: -3.57 ± 0.23 and -2.66 ± 0.17.
For UCCCAGCAAUAUUACGAGUA, in that order: -1 ± 0.072 and -0.558 ± 0.069.
In the case of UCCCAGCAAUAUUACGAUCA, the “self-splicing fitness (ln)” value (30 °C) was -1.48 ± 0.14 and the “self-splicing fitness (ln)” value (37 °C) was -0.722 ± 0.14.
For UCCCAGCAAUAUUACGAUUC, in that order: -4.67 ± 0.32 and -1.97 ± 0.14.
For UCCCAGCAAUAUUACGCCGG, in that order: -2.84 ± 0.28 and -1.21 ± 0.3.
Turning to UCCCAGCAAUAUUACGCGCU, the “self-splicing fitness (ln)” value by setting is: (30 °C) -4.15 ± 0.33; (37 °C) -2.84 ± 0.34.
As to UCCCAGCAAUAUUACGCUAU, the “self-splicing fitness (ln)” value is, setting by setting: (30 °C) -4.27 ± 0.21; (37 °C) -1.31 ± 0.11.
Consider UCCCAGCAAUAUUACGGCAU, for which the “self-splicing fitness (ln)” value runs as follows: (30 °C) -2.77 ± 0.11; (37 °C) -1.01 ± 0.11.
As for UCCCAGCAAUAUUACGGCUA, the “self-splicing fitness (ln)” value (30 °C) is -1.31 ± 0.12 and the “self-splicing fitness (ln)” value (37 °C) is -1.19 ± 0.12.
In the case of UCCCAGCAAUAUUACGUCCG, under “37 °C”, the “self-splicing fitness (ln)” value is -2.06 ± 0.47.
Regarding UCCCAGCAAUAUUACGUCGG, the “self-splicing fitness (ln)” value is, setting by setting: (30 °C) -2.16 ± 0.13; (37 °C) -2.59 ± 0.23.
For UCCCAGCAAUAUUACGUGGG, in that order: -3.37 ± 0.1 and -2.85 ± 0.16.
For UCCCAGCAAUAUUACGUGUA, in that order: 0.0644 ± 0.061 and -0.0313 ± 0.073.
UCCGAGCAAUAUUACGACAC: the “self-splicing fitness (ln)” value was -2.81 ± 0.21 (30 °C) and -2.33 ± 0.23 (37 °C).
For UCCGAGCAAUAUUACGACCU, in that order: -3.35 ± 0.26 and -2.74 ± 0.36.
For UCCGAGCAAUAUUACGAGAC, in that order: -3.1 ± 0.32 and -2.81 ± 0.4.
Consider UCCGAGCAAUAUUACGCAAU, for which the “self-splicing fitness (ln)” value (37 °C) was -2.91 ± 0.34.
Take UCCGAGCAAUAUUACGCACG: the “self-splicing fitness (ln)” value (30 °C) is -3.01 ± 0.43.
UCCGAGCAAUAUUACGCCGC: for the setting “37 °C”, the “self-splicing fitness (ln)” value is -2.15 ± 0.49.
Consider UCCGAGCAAUAUUACGCCGG, for which the “self-splicing fitness (ln)” value was -2.87 ± 0.36 (30 °C) and -2.15 ± 0.28 (37 °C).
Take UCCGAGCAAUAUUACGCCUU: the “self-splicing fitness (ln)” value (30 °C) is -2.35 ± 0.35.
As to UCCGAGCAAUAUUACGCGAG, the “self-splicing fitness (ln)” value (37 °C) is -1.2 ± 0.24.
With UCCGAGCAAUAUUACGGAGA, the “self-splicing fitness (ln)” value reads like this: (30 °C) -1.83 ± 0.18; (37 °C) -1.7 ± 0.27.
The matching figures for UCCGAGCAAUAUUACGGAGU: -3.73 ± 0.21 and -2.74 ± 0.22.
Turning to UCCGAGCAAUAUUACGGCGC, for the setting “37 °C”, the “self-splicing fitness (ln)” value was -3.02 ± 0.37.
Consider UCCGAGCAAUAUUACGGCUG, for which the “self-splicing fitness (ln)” value is, setting by setting: (30 °C) -2.83 ± 0.19; (37 °C) -1.6 ± 0.29.
Take UCCGAGCAAUAUUACGGGAC: the “self-splicing fitness (ln)” value runs as follows: (30 °C) -3.59 ± 0.18; (37 °C) -2.2 ± 0.15.
UCCGAGCAAUAUUACGGGAU: the “self-splicing fitness (ln)” value (30 °C) is -3.44 ± 0.33.
In the case of UCCGAGCAAUAUUACGUCAA, the “self-splicing fitness (ln)” value (30 °C) is -2.89 ± 0.26 and the “self-splicing fitness (ln)” value (37 °C) was -2.27 ± 0.36.
As for UCCGAGCAAUAUUACGUCGA, the “self-splicing fitness (ln)” value by setting is: (30 °C) -1.21 ± 0.16; (37 °C) -0.238 ± 0.13.
For UCCGAGCAAUAUUACGUGGA, in that order: -2.47 ± 0.17 and -2.52 ± 0.19.
For UCCGAGCAAUAUUACGUGUA, in that order: -2.55 ± 0.086 and -1.9 ± 0.082.
The matching figures for UCCGAGCAAUAUUACGUUUC: -3.39 ± 0.22 and -2.11 ± 0.34.
As for UCCUAGCAAUAUUACGAAGU, the “self-splicing fitness (ln)” value by setting is: (30 °C) -1.47 ± 0.1; (37 °C) -0.726 ± 0.14.
As for UCCUAGCAAUAUUACGACAA, under “37 °C”, the “self-splicing fitness (ln)” value is -2.04 ± 0.29.
UCCUAGCAAUAUUACGACGC: the “self-splicing fitness (ln)” value by setting is: (30 °C) -2.35 ± 0.17; (37 °C) -2.02 ± 0.2.
As to UCCUAGCAAUAUUACGAGAU, the “self-splicing fitness (ln)” value runs as follows: (30 °C) -2.85 ± 0.16; (37 °C) -1.7 ± 0.19.
In the case of UCCUAGCAAUAUUACGAUAA, the “self-splicing fitness (ln)” value (30 °C) was -3.25 ± 0.29 and the “self-splicing fitness (ln)” value (37 °C) is -1.56 ± 0.17.
For UCCUAGCAAUAUUACGAUAC, in that order: -3.42 ± 0.35 and -2.41 ± 0.44.
The matching figures for UCCUAGCAAUAUUACGCACG: -3.34 ± 0.37 and -1.87 ± 0.47.
The matching figures for UCCUAGCAAUAUUACGCAGA: -1.87 ± 0.2 and -0.401 ± 0.15.
Regarding UCCUAGCAAUAUUACGCCCC, the “self-splicing fitness (ln)” value (30 °C) is -2.75 ± 0.45 and the “self-splicing fitness (ln)” value (37 °C) was -2.12 ± 0.42.
In the case of UCCUAGCAAUAUUACGCCGC, the “self-splicing fitness (ln)” value was -3.1 ± 0.26 (30 °C) and -3.49 ± 0.35 (37 °C).
UCCUAGCAAUAUUACGCGGC: the “self-splicing fitness (ln)” value (30 °C) is -3.42 ± 0.44.
For UCCUAGCAAUAUUACGCUGU, the “self-splicing fitness (ln)” value (30 °C) is -2.52 ± 0.22 and the “self-splicing fitness (ln)” value (37 °C) is -2.23 ± 0.27.
UCCUAGCAAUAUUACGCUUG: the “self-splicing fitness (ln)” value is -3.79 ± 0.21 (30 °C) and -2.46 ± 0.17 (37 °C).
The matching figures for UCCUAGCAAUAUUACGUACU: -3.41 ± 0.3 and -2 ± 0.26.
For UCCUAGCAAUAUUACGUGAG, in that order: -2.64 ± 0.14 and -1.94 ± 0.17.
As to UCCUAGCAAUAUUACGUUCA, the “self-splicing fitness (ln)” value runs as follows: (30 °C) -2.91 ± 0.35; (37 °C) -2.38 ± 0.25.
For the sequence UCGAAGCAAUAUUACGACAA, the “self-splicing fitness (ln)” value (30 °C) is -1.59 ± 0.14 and the “self-splicing fitness (ln)” value (37 °C) is -1.07 ± 0.15.
UCGAAGCAAUAUUACGAGCU: the “self-splicing fitness (ln)” value was -3.7 ± 0.47 (30 °C) and -1.24 ± 0.39 (37 °C).
As to UCGAAGCAAUAUUACGAGGC, the “self-splicing fitness (ln)” value (37 °C) was -2.15 ± 0.49.
For the sequence UCGAAGCAAUAUUACGAUCA, the “self-splicing fitness (ln)” value was -1.46 ± 0.18 (30 °C) and -0.436 ± 0.23 (37 °C).
As to UCGAAGCAAUAUUACGCAAG, the “self-splicing fitness (ln)” value runs as follows: (30 °C) -2.17 ± 0.12; (37 °C) -1.6 ± 0.13.
Turning to UCGAAGCAAUAUUACGCAUA, the “self-splicing fitness (ln)” value by setting is: (30 °C) -3.01 ± 0.36; (37 °C) -2.72 ± 0.26.
The matching figures for UCGAAGCAAUAUUACGCUGC: -3.55 ± 0.43 and -1.49 ± 0.4.
In the case of UCGAAGCAAUAUUACGCUUG, the “self-splicing fitness (ln)” value (37 °C) is -2.64 ± 0.26.
For the sequence UCGAAGCAAUAUUACGGACC, the “self-splicing fitness (ln)” value is, setting by setting: (30 °C) -3.46 ± 0.33; (37 °C) -2.02 ± 0.34.
The matching figures for UCGAAGCAAUAUUACGGAUU: -3.96 ± 0.32 and -2.56 ± 0.25.
For the sequence UCGAAGCAAUAUUACGGCAC, the “self-splicing fitness (ln)” value was -1.74 ± 0.23 (30 °C) and -1.95 ± 0.32 (37 °C).
Consider UCGAAGCAAUAUUACGGCAG, for which the “self-splicing fitness (ln)” value (30 °C) is -2.11 ± 0.097 and the “self-splicing fitness (ln)” value (37 °C) was -0.963 ± 0.11.

(Values after the supplement of paper PMC7877785.)
